US20130164308A1 (RINAT NEUROSCIENCE, published 2013)
Substitutions are numbered along the chain they refer to. In names and notes the source's numbering stands.

B1: DF1.1 variant HCDR3-P12A/LCDR3-S6R (antibody, V domains shown)
VH: QVQLVQSGAEVKKPGSSVKVSCKTSGGTFNNVAINWVRQAPGQGLEWMGGIIPGLDTPNYAQKFQGRVTITADKSTTSTYLELSSLRSDDTAVYYCAREMEVSGRWRATEAFEIWGQGTMVTVSS
VL: ETTLTQSPGTLSLSPGERATLSCRASQTISNNFVAWYQQKPGQAPRLLIYGASTRATGIPDRFSGSGSGTDFTLTISSLEPEDFAVYYCQQYGSRPYTFGQGTKVDIK
B2: DF1.1 variant HCDR3-W10A/LCDR3-Y3A (antibody, V domains shown)
VH: B1 VH with W106A, A108P
VL: B1 VL with Y92A, R95S
B3: DF1.1 variant HCDR3-P12A/LCDR3-Y8A (antibody, V domains shown)
VH: B1 VH
VL: B1 VL with R95S, Y97A
B4: DF1.1 variant HCDR3-A15R/LCDR3-Y3A (antibody, V domains shown)
VH: B1 VH with A108P, A111R
VL: B1 VL with Y92A, R95S
B5: DF1.1 variant HCDR3-P12A/LCDR3-Y3A (antibody, V domains shown)
VH: B1 VH
VL: B1 VL with Y92A, R95S
B6: DF1.1 variant HCDR3-W10A/LCDR3-Y8A (antibody, V domains shown)
VH: B1 VH with W106A, A108P
VL: B1 VL with R95S, Y97A
B7: DF1.1 variant LCDR3-G4R (antibody, V domains shown)
VH: B1 VH with A108P
VL: B1 VL with G93R, R95S
B8: DF1.1 variant HCDR3-E5A (antibody, V domains shown)
VH: B1 VH with E101A, A108P
VL: B1 VL with R95S
B9: DF1.1 variant HCDR3-G8R (antibody, V domains shown)
VH: B1 VH with G104R, A108P
VL: B1 VL with R95S
B10: DF1.1 variant HCDR3-S7R (antibody, V domains shown)
VH: B1 VH with S103R, A108P
VL: B1 VL with R95S
B11: DF1.1 variant LCDR3-T9R (antibody, V domains shown)
VH: B1 VH with A108P
VL: B1 VL with R95S, T98R
B12: DF1.1 variant LCDR3-P7A (antibody, V domains shown)
VH: B1 VH with A108P
VL: B1 VL with R95S, P96A
B13: DF1.1 variant LCDR3-Q1A (antibody, V domains shown)
VH: B1 VH with A108P
VL: B1 VL with Q90A, R95S
B14: DF1.1 variant HCDR3-R11A (antibody, V domains shown)
VH: B1 VH with R107A, A108P
VL: B1 VL with R95S
B15: DF1.1 variant HCDR3-R9A (antibody, V domains shown)
VH: B1 VH with R105A, A108P
VL: B1 VL with R95S

target: T1, S. aureus alpha-toxin (Staphylococcus aureus, UniProt P09616)

Binder	Kd
B1	330000 pM
B2	440000 pM
B3	37000 pM
B4	280000 pM
B5	190000 pM
B6	440000 pM

target: T1, S. aureus alpha-toxin; remark: another data set of the same source

Binder	Kd
B7	< 140 pM
B8	400 pM
B9	400 pM
B10	300 pM
B11	< 140 pM
B12	< 140 pM
B13	< 140 pM
B14	800 pM
B15	400 pM
